34 variants from the Human Domainome abundance scans (Beltran et al. 2025) can be followed below.

± gives the uncertainty stated by the source.

B1: Transcriptional regulator ERG, residues 117 to 197; numbered along this chain, P11308 (parent)
chain: NMTTNERRVIVPADPTLWSTDHVRQWLEWAVKEYGLPDVNILLFQNIDGKELCKMTKDDFQRLTPSYNADILLSHLHYLRE

Variants of B1 are the subject of the data set. Briefly: abundance fitness (aPCA) (normalised: wild type 0, dead -1); higher = more abundant; growth selection in yeast, the domain comes from the species named. The following applies: Homo sapiens.
NMTTNERRVIVPADPTLWSTDHVRQWLEWAVKEYGLPDVNILLFWNIDGKELCKMTKDDFQRLTPSYNADILLSHLHYLRE: the abundance fitness was -0.292 ± 0.052. For the variant NMTTNERRVIVPADPTLWSTDHVRQWLEWAVKEYGLPDVNILLFLNIDGKELCKMTKDDFQRLTPSYNADILLSHLHYLRE, the abundance fitness was -0.241 ± 0.047. Consider NMTTNERRVIVPADPTLWSTDHVRQWLEWAVKEYGLPDVNILLFYNIDGKELCKMTKDDFQRLTPSYNADILLSHLHYLRE, for which the abundance fitness was -0.113 ± 0.082.

NMTTNERRVIVPADPTLWSTDHVRQWLEWAVKEYGLPDVNILLFRNIDGKELCKMTKDDFQRLTPSYNADILLSHLHYLRE: the abundance fitness is -0.055 ± 0.034. The result for NMTTNERRVIVPADPTLWSTDHVRQWLEWAVKEYGLPDVNILLFMNIDGKELCKMTKDDFQRLTPSYNADILLSHLHYLRE reads -0.083 ± 0.062; that for NMTTNERRVIVPADPTLWSTDHVRQWLEWAVKEYGLPDVNILLFENIDGKELCKMTKDDFQRLTPSYNADILLSHLHYLRE, 0.045 ± 0.043; that for NMTTNERRVIVPADPTLWSTDHVRQWLEWAVKEYGLPDVNILLFHNIDGKELCKMTKDDFQRLTPSYNADILLSHLHYLRE, 0.07 ± 0.071. The result for NMTTNERRVIVPADPTLWSTDHVRQWLEWAVKEYGLPDVNILLFCNIDGKELCKMTKDDFQRLTPSYNADILLSHLHYLRE reads -0.234 ± 0.082; that for NMTTNERRVIVPADPTLWSTDHVRQWLEWAVKEYGLPDVNILLFDNIDGKELCKMTKDDFQRLTPSYNADILLSHLHYLRE, -0.096 ± 0.064; that for NMTTNERRVIVPADPTLWSTDHVRQWLEWAVKEYGLPDVNILLFINIDGKELCKMTKDDFQRLTPSYNADILLSHLHYLRE, -0.235 ± 0.085. The result for NMTTNERRVIVPADPTLWSTDHVRQWLEWAVKEYGLPDVNILLFKNIDGKELCKMTKDDFQRLTPSYNADILLSHLHYLRE reads 0.042 ± 0.053; that for NMTTNERRVIVPADPTLWSTDHVRQWLEWAVKEYGLPDVNILLFVNIDGKELCKMTKDDFQRLTPSYNADILLSHLHYLRE, -0.154 ± 0.04. Consider NMTTNERRVIVPADPTLWSTDHVRQWLEWAVKEYGLPDVNILLFSNIDGKELCKMTKDDFQRLTPSYNADILLSHLHYLRE, for which the abundance fitness is -0.005 ± 0.046. Turning to NMTTNERRVIVPADPTLWSTDHVRQWLEWAVKEYGLPDVNILLFFNIDGKELCKMTKDDFQRLTPSYNADILLSHLHYLRE, the abundance fitness is -0.274 ± 0.11. The figure for NMTTNERRVIVPADPTLWSTDHVRQWLEWAVKEYGLPDVNILLFGNIDGKELCKMTKDDFQRLTPSYNADILLSHLHYLRE is -0.042 ± 0.032; for NMTTNERRVIVPADPTLWSTDHVRQWLEWAVKEYGLPDVNILLFPNIDGKELCKMTKDDFQRLTPSYNADILLSHLHYLRE it is -0.407 ± 0.081. For the variant NMTTNERRVIVPADPTLWSTDHVRQWLEWAVKEYGLPDVNILLFTNIDGKELCKMTKDDFQRLTPSYNADILLSHLHYLRE, the abundance fitness was -0.132 ± 0.062. For the variant NMTTNERRVIVPADPTLWSTDHVRQWLEWAVKEYGLPDVNILLFQEIDGKELCKMTKDDFQRLTPSYNADILLSHLHYLRE, the abundance fitness was determined as 0.039 ± 0.053. Take NMTTNERRVIVPADPTLWSTDHVRQWLEWAVKEYGLPDVNILLFQFIDGKELCKMTKDDFQRLTPSYNADILLSHLHYLRE: the abundance fitness is -0.133 ± 0.077. As for NMTTNERRVIVPADPTLWSTDHVRQWLEWAVKEYGLPDVNILLFQDIDGKELCKMTKDDFQRLTPSYNADILLSHLHYLRE, the abundance fitness came to 0.023 ± 0.062. As for NMTTNERRVIVPADPTLWSTDHVRQWLEWAVKEYGLPDVNILLFQCIDGKELCKMTKDDFQRLTPSYNADILLSHLHYLRE, the abundance fitness was -0.066 ± 0.061. NMTTNERRVIVPADPTLWSTDHVRQWLEWAVKEYGLPDVNILLNQNIDGKELCKMTKDDFQRLTPSYNADILLSHLHYLRE: the abundance fitness was -0.067 ± 0.082. For NMTTNERRVIVPADPTLWSTDHVRQWLEWAVKEYGLPDVNILLGQNIDGKELCKMTKDDFQRLTPSYNADILLSHLHYLRE, the abundance fitness was -0.382 ± 0.037. Regarding NMTTNERRVIVPADPTLWSTDHVRQWLEWAVKEYGLPDVNILLVQNIDGKELCKMTKDDFQRLTPSYNADILLSHLHYLRE, the abundance fitness was -0.523 ± 0.053.

Turning to NMTTNERRVIVPADPTLWSTDHVRQWLEWAVKEYGLPDVNILLLQNIDGKELCKMTKDDFQRLTPSYNADILLSHLHYLRE, the abundance fitness was -0.217 ± 0.047. The result for NMTTNERRVIVPADPTLWSTDHVRQWLEWAVKEYGLPDVNILLHQNIDGKELCKMTKDDFQRLTPSYNADILLSHLHYLRE reads -0.407 ± 0.15; that for NMTTNERRVIVPADPTLWSTDHVRQWLEWAVKEYGLPDVNILLRQNIDGKELCKMTKDDFQRLTPSYNADILLSHLHYLRE, -0.278 ± 0.04. With NMTTNERRVIVPADPTLWSTDHVRQWLEWAVKEYGLPDVNILLWQNIDGKELCKMTKDDFQRLTPSYNADILLSHLHYLRE, the abundance fitness was -0.072 ± 0.045. On to NMTTNERRVIVPADPTLWSTDHVRQWLEWAVKEYGLPDVNILLYQNIDGKELCKMTKDDFQRLTPSYNADILLSHLHYLRE, for which the abundance fitness is -0.081 ± 0.1.

Consider NMTTNERRVIVPADPTLWSTDHVRQWLEWAVKEYGLPDVNILLSQNIDGKELCKMTKDDFQRLTPSYNADILLSHLHYLRE, for which the abundance fitness was -0.275 ± 0.052. As for NMTTNERRVIVPADPTLWSTDHVRQWLEWAVKEYGLPDVNILLPQNIDGKELCKMTKDDFQRLTPSYNADILLSHLHYLRE, the abundance fitness is -0.435 ± 0.1. The figure for NMTTNERRVIVPADPTLWSTDHVRQWLEWAVKEYGLPDVNILLIQNIDGKELCKMTKDDFQRLTPSYNADILLSHLHYLRE is -0.497 ± 0.15. On to NMTTNERRVIVPADPTLWSTDHVRQWLEWAVKEYGLPDVNILLTQNIDGKELCKMTKDDFQRLTPSYNADILLSHLHYLRE, for which the abundance fitness was -0.297 ± 0.065. The result for NMTTNERRVIVPADPTLWSTDHVRQWLEWAVKEYGLPDVNILLQQNIDGKELCKMTKDDFQRLTPSYNADILLSHLHYLRE reads -0.181 ± 0.068.
